Data reported in patent US20180155451A1 (published 2018).
Substitutions are numbered along the chain they refer to. In names and notes the source's numbering stands.

T1: FcgRIIaH (human, UniProt P12318 34-217)
T1 construct: extracellular domain; Soluble extracellular domain with C-terminal His tag; also called FcγRIIa H; FcγRIIa type H; not shown: His tag attached to the C terminus
T1 sequence (looked up): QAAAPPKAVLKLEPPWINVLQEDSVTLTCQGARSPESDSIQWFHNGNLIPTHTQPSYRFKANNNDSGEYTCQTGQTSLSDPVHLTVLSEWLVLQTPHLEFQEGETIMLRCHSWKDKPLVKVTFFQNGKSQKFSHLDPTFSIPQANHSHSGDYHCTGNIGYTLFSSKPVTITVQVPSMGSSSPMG

T2: FcgRIIaR (human, UniProt P12318 34-217)
T2 construct: extracellular domain; Soluble extracellular domain with C-terminal His tag; also called FcγRIIa R; FcγRIIa type R; not shown: His tag attached to the C terminus
T2 sequence (looked up): T1 sequence (looked up) with H134R

T3: FcgRIIb (human, UniProt P31994 43-217)
T3 construct: extracellular domain; Soluble extracellular domain with C-terminal His tag; also called FcγRIIb; CD32B; not shown: His tag attached to the C terminus
T3 sequence (looked up): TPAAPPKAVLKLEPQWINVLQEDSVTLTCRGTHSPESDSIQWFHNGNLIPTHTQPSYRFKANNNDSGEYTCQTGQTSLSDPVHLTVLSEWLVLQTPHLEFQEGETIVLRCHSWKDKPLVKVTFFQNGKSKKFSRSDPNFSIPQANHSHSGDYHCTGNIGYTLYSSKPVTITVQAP

B1: H240-Kn120/H240-Hl068/L73-k0 (antibody, human IgG1, kappa)
heavy 1: QDQLVQSGAEVKKPGASVKVSCKASGFNIKDTYIQWVRQAPGQGLEWMGRIDPLRKQTKYREKFEGRVTITADTSTNTAYMELSSLRSEDTAVYYCVRSGREFDYWGQGTLVTVSSASTKGPSVFPLAPSSKSTSGGTAALGCLVKDYFPEPVTVSWNSGALTSGVHTFPAVLQSSGLYSLSSVVTVPSSSLGTQTYICNVNHKPSNTKVDKKVEPKSCDKTHTCPPCPAPEYYWGPMVFLFPPKPKDTLMISRTPEVTCVVVDVSDEDPEVKFNWYVDGVEVHNAKTKPREEQYNATYRVVSVLTVLHQDWLNGKEYKCKVSNKDLPAPIEKTISKAKGQPREPQVCTLPPSRDELTKNQVSLWCLVKGFYPSDIAVEWESNGQPENNYKTTPPVLDSDGSFFLYSKLTVDKSRWQQGNVFSCSVMHEALHNHYTQKSLSLSP
heavy 2: QDQLVQSGAEVKKPGASVKVSCKASGFNIKDTYIQWVRQAPGQGLEWMGRIDPLRKQTKYREKFEGRVTITADTSTNTAYMELSSLRSEDTAVYYCVRSGREFDYWGQGTLVTVSSASTKGPSVFPLAPSSKSTSGGTAALGCLVKDYFPEPVTVSWNSGALTSGVHTFPAVLQSSGLYSLSSVVTVPSSSLGTQTYICNVNHKPSNTKVDKKVEPKSCDKTHTCPPCPAPELLGGPSVFLFPPKPKDTLMISRTPEVTCVVVDVSHEEPEVKFNWYVDGVEVHNAKTKPREEQYNSTYRVVSVLTVLHQDWLNGKEYKCKVSNDALPKPIEETISKAKGQPREPQVYTLPPSRCELTKNQVSLSCAVKGFYPSDIAVEWESNGQPENNYKTTPPVLDSDGSFFLVSKLTVDKSRWQQGNVFSCSVMHEALHNHYTQKSLSLSP
light: DIQMTQSPSSLSASVGDRVTITCRASQDIHKYIAWYQQKPGQAPRLLIQYTSTLQPGVPSRFSGSGSGTDYTFTISSLQPEDIATYYCLQYEQLRTFGGGTKVEIKRTVAAPSVFIFPPSDEQLKSGTASVVCLLNNFYPREAKVQWKVDNALQSGNSQESVTEQDSKDSTYSLSSTLTLSKADYEKHKVYACEVTHQGLSSPVTKSFNRGEC
notes: Heterodimerized anti-epiregulin IgG1 antibody (knobs-into-holes); also called H240-Kn120/H240-HI068/L73-k0
B2: H240-Kn120/H240-Hl170/L73-k0 (antibody, human IgG1, kappa)
heavy 1: B1 heavy 1
heavy 2: B1 heavy 2 with L327A
light: B1 light
notes: Heterodimerized anti-epiregulin IgG1 antibody; L328A introduced into H240-Hl068; also called H240-Kn120/H240-HI170/L73-k0
B3: H240-Kn138/H240-Hl147/L73-k0 (antibody, human IgG1, kappa)
heavy 1: B1 heavy 1 with L327W
heavy 2: B1 heavy 2 with L327W
light: B1 light
notes: Anti-epiregulin IgG1 antibody; L328W introduced into both H chains of H240-Kn120/H240-Hl068/L73-k0; also called H240-Kn138/H240-HI147/L73-k0
B4: H240-Kn120/H240-Hl174/L73-k0 (antibody, human IgG1, kappa)
heavy 1: B1 heavy 1
heavy 2: B1 heavy 2 with I331E
light: B1 light
notes: Heterodimerized anti-epiregulin IgG1 antibody; I332E introduced into H240-Hl068; also called H240-Kn120/H240-HI174/L73-k0
B5: H240-Kn138/H240-Hl068/L73-k0 (antibody, human IgG1, kappa)
heavy 1: B1 heavy 1 with L327W
heavy 2: B1 heavy 2
light: B1 light
notes: Heterodimerized anti-epiregulin IgG1 antibody; L328W introduced into H240-Kn120; also called H240-Kn138/H240-HI068/L73-k0
B6: H240-Kn166/H240-Hl170/L73-k0 (antibody, human IgG1, kappa)
heavy 1: B1 heavy 1 with L327A
heavy 2: B1 heavy 2 with L327A
light: B1 light
notes: Anti-epiregulin IgG1 antibody; L328A introduced into both H chains of H240-Kn120/H240-Hl068/L73-k0; also called H240-Kn166/H240-HI170/L73-k0
B7: H240-Kn120/H240-Hl150/L73-k0 (antibody, human IgG1, kappa)
heavy 1: B1 heavy 1
heavy 2: B1 heavy 2 with I331T
light: B1 light
notes: Heterodimerized anti-epiregulin IgG1 antibody; I332T introduced into H240-Hl068; also called H240-Kn120/H240-HI150/L73-k0
B8: H240-Kn149/H240-Hl068/L73-k0 (antibody, human IgG1, kappa)
heavy 1: B1 heavy 1 with L327W, K333L
heavy 2: B1 heavy 2
light: B1 light
notes: Heterodimerized anti-epiregulin IgG1 antibody; L328W and K334L introduced into H240-Kn120; also called H240-Kn149/H240-HI068/L73-k0
B9: H240-Kn120/H240-Hl182/L73-k0 (antibody, human IgG1, kappa)
heavy 1: B1 heavy 1
heavy 2: B1 heavy 2 with A230H
light: B1 light
notes: Heterodimerized anti-epiregulin IgG1 antibody; A231H introduced into H240-Hl068; also called H240-Kn120/H240-HI182/L73-k0

Biological target: T1, FcgRIIaH
Test: SPR (Biacore); KD of H240-Kn120/H240-Hl068/L73-k0 divided by KD of this antibody
Procedure: (§1) Analysis of interaction between obj ective antibody and the FcγR was carried out using Biacore T100 (GE Healthcare), Biacore T200, Biacore A100, and Biacore 4000.

| Relative KD | Binder |
| --- | --- |
| 1 | B1 |
| 2.3 | B2 |
| 0.3 | B3 |
| 0.7 | B4 |
| 1.6 | B5 |
| 1.9 | B6 |
| 1.2 | B7 |
| 1.6 | B8 |
| 0.5 | B9 |

Biological target: T2, FcgRIIaR
Test: as above
Procedure: as §1

| Relative KD | Binder |
| --- | --- |
| 1 | B1 |
| 2.3 | B2 |
| 1.8 | B3 |
| 0.7 | B4 |
| 1.1 | B5 |
| 0.6 | B6 |
| 1 | B7 |
| 1.1 | B8 |
| 0.5 | B9 |

Biological target: T4, FcgRIIIaV (human, UniProt P08637 17-208)
T4 construct: extracellular domain; Soluble extracellular domain with C-terminal His tag; polymorphic site made after J. Clin. Invest; also called FcγRIIIa V; not shown: His tag attached to the C terminus
Test: as above
Procedure: as §1

T4 sequence (P08637 17-208 F176V limits assumed): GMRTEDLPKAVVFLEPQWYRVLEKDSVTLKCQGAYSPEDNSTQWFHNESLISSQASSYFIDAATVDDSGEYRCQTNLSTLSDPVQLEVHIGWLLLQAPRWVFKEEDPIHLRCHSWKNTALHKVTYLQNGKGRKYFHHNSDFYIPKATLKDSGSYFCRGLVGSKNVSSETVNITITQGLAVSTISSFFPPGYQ

| Relative KD | Binder |
| --- | --- |
| 1 | B1 |
| 0.4 | B2 |
| 0 | B3 |
| 10 | B4 |
| 0.8 | B5 |
| 0.4 | B6 |
| 0.6 | B7 |
| 1.1 | B8 |
| 1.2 | B9 |

Biological target: T5, FcgRIIIaF (human, UniProt P08637 17-208)
T5 construct: extracellular domain; Soluble extracellular domain with C-terminal His tag; polymorphic site made after J. Clin. Invest; also called FcγRIIIa F; not shown: His tag attached to the C terminus
Test: as above
Procedure: as §1

T5 sequence (P08637 17-208): as the sequence (P08637 17-208 F176V limits assumed) above, with V160F counted along it

| Relative KD | Binder |
| --- | --- |
| 1 | B1 |
| 0.6 | B2 |
| 0.1 | B3 |
| 4.3 | B4 |
| 0.6 | B5 |
| 0.5 | B6 |
| 0.7 | B7 |
| 1.5 | B8 |
| 0.7 | B9 |

Biological target: T3, FcgRIIb
Test: as above
Procedure: as §1

| Relative KD | Binder |
| --- | --- |
| 1 | B1 |
| 2.2 | B2 |
| 1.4 | B3 |
| 1.2 | B4 |
| 1.2 | B5 |
| 0.8 | B6 |
| 1.5 | B7 |
| 1 | B8 |
| 0.6 | B9 |

Biological target: T6, FcgRIa (human, UniProt P12314 16-292)
T6 construct: extracellular domain; Soluble extracellular domain with C-terminal His tag, expressed in FreeStyle293 cells; also called FcγRIa; FcγRI; not shown: His tag attached to the C terminus
Test: as above
Procedure: as §1

T6 sequence (P12314 16-292): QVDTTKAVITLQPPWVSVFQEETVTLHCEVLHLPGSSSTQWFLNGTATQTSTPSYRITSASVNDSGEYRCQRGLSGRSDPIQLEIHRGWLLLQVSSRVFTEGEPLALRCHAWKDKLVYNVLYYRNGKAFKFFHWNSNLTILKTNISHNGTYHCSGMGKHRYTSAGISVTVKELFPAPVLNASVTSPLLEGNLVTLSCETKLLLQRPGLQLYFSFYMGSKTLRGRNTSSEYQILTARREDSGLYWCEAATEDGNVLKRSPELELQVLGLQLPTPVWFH

| Relative KD | Binder |
| --- | --- |
| 1 | B1 |
| 0.8 | B2 |
| 0.5 | B3 |
| 1.1 | B4 |
| 1 | B5 |
| 2.4 | B6 |
| 0.4 | B7 |
| 0.4 | B8 |
| 0.9 | B9 |

Biological target: T1, FcgRIIaH
Test: SPR (Biacore), antibody captured, FcgR as analyte
Procedure: (§2) Analysis of interaction between obj ective antibody and the FcγR was carried out using Biacore T100 (GE Healthcare), Biacore T200, Biacore A100, and Biacore 4000. HBS-EP+ (GE Healthcare) was used as the running buffer, and the measurement temperature was set to 25° C. Chips produced by immobilizing the antigen peptide by the amine coupling method to a Series S sensor Chip CM5 (GE Healthcare), chips produced by allowing preliminarily biotinylated antigen peptides to interact with and immobilize onto a Series S Sensor Chip SA (certified) (GE Healthcare), chips produced by immobilizing Protein L (ACTIGEN, BioVision) to Series S Sencor Chip CM5 (GE Healthcare), or chips produced by immobilizing Protein A/G (Thermo Scientific) to Series S Sencor Chip CM5 (GE Healthcare) were used. Antibodies of interest were captured onto these chips, and allowed to interact to each FcγR diluted with running buffer. To regenerate and repeatedly use the chip, the antibodies captured onto the chip were washed off by reacting 10 mM glycine-HCl, pH 1.5.

| Kd [nM] | Binder |
| --- | --- |
| 41 | B1 |
| 18 | B2 |
| 130 | B3 |
| 55 | B4 |
| 25 | B5 |
| 22 | B6 |
| 35 | B7 |
| 26 | B8 |
| 77 | B9 |

Biological target: T2, FcgRIIaR
Test: SPR (Biacore), antibody captured, FcgR as analyte
Procedure: as §2

| Kd [nM] | Binder |
| --- | --- |
| 20 | B1 |
| 8.6 | B2 |
| 11 | B3 |
| 30 | B4 |
| 19 | B5 |
| 31 | B6 |
| 20 | B7 |
| 19 | B8 |
| 40 | B9 |

Biological target: T4, FcgRIIIaV
Test: SPR (Biacore), antibody captured, FcgR as analyte
Procedure: as §2

| Kd [nM] | Binder |
| --- | --- |
| 0.36 | B1 |
| 0.93 | B2 |
| 16 | B3 |
| 0.036 | B4 |
| 0.43 | B5 |
| 1 | B6 |
| 0.57 | B7 |
| 0.32 | B8 |
| 0.29 | B9 |

Biological target: T5, FcgRIIIaF
Test: SPR (Biacore), antibody captured, FcgR as analyte
Procedure: as §2

| Kd [nM] | Binder |
| --- | --- |
| 2.2 | B1 |
| 3.9 | B2 |
| 22 | B3 |
| 0.51 | B4 |
| 3.7 | B5 |
| 4.2 | B6 |
| 3 | B7 |
| 1.5 | B8 |
| 3.1 | B9 |

Biological target: T3, FcgRIIb
Test: SPR (Biacore), antibody captured, FcgR as analyte
Procedure: as §2

| Kd [nM] | Binder |
| --- | --- |
| 150 | B1 |
| 67 | B2 |
| 110 | B3 |
| 130 | B4 |
| 130 | B5 |
| 200 | B6 |
| 98 | B7 |
| 150 | B8 |
| 240 | B9 |

Biological target: T6, FcgRIa
Test: SPR (Biacore), antibody captured, FcgR as analyte
Procedure: as §2

| Kd [nM] | Binder |
| --- | --- |
| 0.16 | B1 |
| 0.19 | B2 |
| 0.31 | B3 |
| 0.14 | B4 |
| 0.16 | B5 |
| 0.066 | B6 |
| 0.39 | B7 |
| 0.38 | B8 |
| 0.18 | B9 |
